Experimental data from patent US12186374B2 (Sanofi-Aventis Deutschland GmbH, priority 2014, dated 2025).

Legend:
[1] = system: patients with T2DM; assay: Symptomatic hypoglycemia (Example 3)
[2] = system: patients with T2DM; set-up: species or system human; settings: in vivo
Description: (§1) In case the investigator or the patient recognizes any signs of local intolerability at injection site this should be recorded on the standard AE page in the e-CRF. AEs related to local intolerability at the injection site will be identified by searching the term “injection site” in either the PTs coded from the investigator reported terms or the PTs coded from the ARAC diagnosis terms. The number (%) of patients with related events will be summarized by treatment group.

[3] = system: patients with Type 2 diabetes mellitus (T2DM); set-up: species or system human; settings: in vivo
Description: as §1

[4] = system: patients with Type 2 diabetes mellitus (T2DM); assay: Patients with HbA1c ≤6.5% or <7% at Week 30 (Example 2); assay type: in vivo, human; settings: mITT population
Description: (§2) Efficacy analysis was based on modified intent-to-treat (mITT) population using efficacy assessments collected during the study, including those obtained after IMP discontinuation or introduction of rescue therapy. The mITT population consisted of all randomized patients who had both a baseline assessment and at least one post-baseline assessment of any primary or secondary efficacy variables.
(§3) Similar MMRM method or ANCOVA was applied on continuous secondary efficacy endpoints and Cochran-Mantei-Haenszel method stratified by randomization strata was applied on categorical efficacy endpoints.

[5] = system: patients with Type 2 diabetes mellitus (T2DM); assay: Fasting plasma glucose change from baseline to Week 30 (Example 2); assay type: in vivo, human
Protocol: (§4) FPG is measured at a central laboratory. At V5 and V21, FPG will be part of the standardized meal test.
as §3

[6] = system: patients with T2DM; assay: Major cardiovascular events adjudicated by CAC (Example 3)
[7] = system: patients with T2DM; assay: Patients requiring rescue therapy (Example 3); assay type: in vivo, human
Description: Routine fasting SMPG and central lab alerts on FPG (and HbA1c after Week 12) were set up to ensure that glycemic parameters remained under predefined threshold values. If values were above predefined thresholds, and no explanations were found, or appropriate actions failed, or a dose >60 U was necessary to decrease FPG and/or HbA1c below the threshold values, rescue therapy was to be introduced along with IMP and metformin (if taken). Newly initiated anti-diabetic medications, or an increase from baseline in background metformin dose were considered as a rescue therapy.

[8] = system: patients with T2DM; assay: Patients with HbA1c ≤6.5% or <7% at Week 30 (Example 3); assay type: in vivo, human
Description: (§5) Similar MMRM method or analysis of covariance (ANCOVA) was applied on continuous secondary efficacy endpoints and the Cochran-Mantei-Haenszel method stratified by randomization strata was applied for categorical efficacy endpoints.

[9] = system: patients with Type 2 diabetes mellitus (T2DM); assay: HbA1c change from baseline to Week 30 (Example 2, on top of metformin); assay type: in vivo, human; settings: for HbA1c change from baseline to Week 30, LS Mean (SE): MMRM
Protocol: For the eligibility and efficacy assessments of the study, HbA1c is measured by a certified level I “National Glycohemoglobin Standardization Program” (NGSP) central laboratory.
Randomization was stratified by values of HbA1c at visit 4 (<8%, […]) and second oral anti-diabetic (OAD) use at screening (Yes, No).
Diagnosis and criteria for inclusion: Inclusion criteria: Patients with type 2 diabetes mellitus (T2DM) diagnosed for at least 1 year before the screening visit, treated for at least 3 months prior to Visit 1 with metformin alone or metformin and a second oral anti-diabetic treatment that could be a SU, a glinide, a SGLT-2 inhibitor, or a DPP-4 inhibitor, and who were not adequately controlled with this treatment.
as §2
The primary efficacy endpoint was analyzed using a mixed-effect model with repeated measures (MMRM). The MMRM model included the treatment groups, randomization strata, visit, treatment-by-visit interaction, and country as fixed-effect factors, and the baseline HbA1c-by-visit interaction as covariate.

[10] = system: patients with T2DM; assay: Fasting plasma glucose change from baseline to Week 30 (Example 3); assay type: in vivo, human
Protocol: as §4, §5

[11] = on-treatment period, Safety population
[12] = plasma glucose <60 mg/dL [[…]], on-treatment period, Safety population
[13] = plasma glucose ≤70 mg/dL [[…]], on-treatment period, Safety population

Substance: Gly(A21)-Arg(B31)-Arg(B32)-human insulin [Insulin Glargine]
- Documented symptomatic hypoglycemia event rate per patient-year ([1]; Example 3): 4.22 per patient-year
- Patients with at least one event of documented (PG ≤70 mg/dL) symptomatic hypoglycemia ([1]; Example 3): 42.5%
- Severe symptomatic hypoglycemia, % of patients ([1]; Example 3): 0.3%
- Severe symptomatic hypoglycemia, number of events ([1]; Example 3): 1 events
- Severe symptomatic hypoglycemia, number of patients ([1]; Example 3): 1 patients
- Probable symptomatic hypoglycaemia: Number of events [1, 11]: 29
- Probable symptomatic hypoglycaemia: Number of events per patient year [1, 11]: 0.14
- Probable symptomatic hypoglycaemia: Number of patients with events per patient year [1, 11]: 0.10
- Probable symptomatic hypoglycaemia: patients with events, % [1, 11]: (5.5%)
- Severe symptomatic hypoglycaemia: Number of events [1, 11]: 1
- Severe symptomatic hypoglycaemia: Number of events per patient year [1, 11]: <0.01
- Severe symptomatic hypoglycaemia: Number of patients with events per patient year [1, 11]: <0.01
- Severe symptomatic hypoglycaemia: patients with events, % [1, 11]: (0.3%)
- Symptomatic hypoglycemia: Number of events [1, 11]: 910
- Symptomatic hypoglycemia: Number of events per patient year [1, 11]: 4.36
- Symptomatic hypoglycemia: Number of patients with events per patient year [1, 11]: 0.77
- Symptomatic hypoglycemia: patients with events, % [1, 11]: (44.1%)
- Documented symptomatic hypoglycaemia: Number of events [1, 12]: 235
- Documented symptomatic hypoglycaemia: Number of events per patient year [1, 12]: 1.13
- Documented symptomatic hypoglycaemia: Number of patients with events per patient year [1, 12]: 0.40
- Documented symptomatic hypoglycaemia: patients with events, % [1, 12]: (22.7%)
- Documented symptomatic hypoglycaemia: Number of events [1, 13]: 880
- Documented symptomatic hypoglycaemia: Number of events per patient year [1, 13]: 4.22
- Documented symptomatic hypoglycaemia: Number of patients with events per patient year [1, 13]: 0.74
- Documented symptomatic hypoglycaemia: patients with events, % [1, 13]: (42.5%)
- % of patients experiencing injection site reactions: Any injection site reactions [2]: 0.5%
- % of patients experiencing injection site reactions: Injection site hypertrophy [2]: 0.3%
- % of patients experiencing injection site reactions: Injection site reaction [2]: 0.3%
- % of patients experiencing injection site reactions: PTs coded from the investigator reported terms [2]: 0.5%
- Number of patients experiencing injection site reactions: Any injection site reactions [2]: 2
- Number of patients experiencing injection site reactions: Injection site hypertrophy [2]: 1
- Number of patients experiencing injection site reactions: Injection site reaction [2]: 1
- Number of patients experiencing injection site reactions: PTs coded from the investigator reported terms [2]: 2
- Patients who experienced injection site reactions [2]: 2 patients
- Any injection site reactions [3]: 8 (1.7%) Number (%)
- Injection site bruising [3]: 4 (0.9%) Number (%)
- Injection site discomfort [3]: 0 Number (%)
- Injection site erythema [3]: 0 Number (%)
- Injection site haemorrhage [3]: 2 (0.4%) Number (%)
- Injection site irritation [3]: 0 Number (%)
- Injection site nodule [3]: 0 Number (%)
- Injection site pain [3]: 2 (0.4%) Number (%)
- Injection site papule [3]: 0 Number (%)
- Injection site rash [3]: 0 Number (%)
- Injection site reactions, % of patients [3]: 1.7%
- Injection site reactions: PTs coded from the ARAC diagnosis terms [3]: 0 Number (%)
- Injection site reactions: PTs coded from the investigator reported terms [3]: 8 (1.7%) Number (%)
- Injection site swelling [3]: 1 (0.2%) Number (%)
- Injection site warmth [3]: 1 (0.2%) Number (%)
- % of patients with HbA1c ≤[…] at Week 30 [4]: (39.5%)
- Number of patients with HbA1c ≤[…] at Week 30 [4]: 184 patients
- % of patients with HbA1c ≤[…] at Week 30 ([4]; listed as insulin glargine): 39.5%
- FPG, LS mean change from baseline to Week 30 ([5]; Example 2): -3.27 mmol/L
- Fasting plasma glucose, change from baseline to Week 30, LS Mean (SE) ([5]; MMRM, mITT population): −3.27 (0.091) mmol/L
- Fasting plasma glucose, Week 30, Mean (SD) ([5]; mITT population): 6.53 (1.76) mmol/L
- Fasting plasma glucose, Week 30, Median ([5]; mITT population): 6.20 mmol/L
- Events adjudicated as major cardiovascular events by CAC, % of patients ([6]; Example 3): 1.1%
- Events adjudicated as major cardiovascular events by CAC, number of patients ([6]; Example 3): 4 patients
- % of patients with events adjudicated as major cardiovascular events by CAC: Any [6, 11]: 1.1%
- % of patients with events adjudicated as major cardiovascular events by CAC: Cardiovascular death [6, 11]: 0.3%
- % of patients with events adjudicated as major cardiovascular events by CAC: Coronary revascularization procedure [6, 11]: 0.8%
- % of patients with events adjudicated as major cardiovascular events by CAC: Hospitalization for heart failure [6, 11]: 0.3%
- Number of patients with events adjudicated as major cardiovascular events by CAC: Any [6, 11]: 4
- Number of patients with events adjudicated as major cardiovascular events by CAC: Cardiovascular death [6, 11]: 1
- Number of patients with events adjudicated as major cardiovascular events by CAC: Coronary revascularization procedure [6, 11]: 3
- Number of patients with events adjudicated as major cardiovascular events by CAC: Hospitalization for heart failure [6, 11]: 1
- Number of patients with events adjudicated as major cardiovascular events by CAC: Hospitalization for unstable angina [6, 11]: 0
- Number of patients with events adjudicated as major cardiovascular events by CAC: Non-fatal myocardial infarction [6, 11]: 0
- Number of patients with events adjudicated as major cardiovascular events by CAC: Non-fatal stroke [6, 11]: 0
- Patients who received rescue therapy, % [7]: 6.0%
- Patients who received rescue therapy, number [7]: 22 patients
- Patients reaching HbA1c<7.0% at Week 30 ([8]; Example 3): 29.6%
- Patients reaching HbA1c≤[…] at Week 30 ([8]; Example 3): 14.2%
- Patients with HbA1c <7% at Week 30 ([8]; mITT population): 108 (29.6%) Number (%)
- Patients with HbA1c ≤[…] at Week 30 ([8]; mITT population): 52 (14.2%) Number (%)
- HbA1c change from baseline to Week 30, LS Mean (SE) ([9]; mITT population): −1.34 (0.039) %
- HbA1c change from baseline to Week 30, LS Mean (SE) ([9]; mITT population, listed as insulin glargine): −1.34%
- HbA1c (%) Week 30 Mean (SD) ([9]; Week 30, mITT population): 6.81 (0.76) %
- HbA1c (%) Week 30 Median ([9]; Week 30, mITT population): 6.70%
- HbA1c (%) Week 30 Mean (SD) ([9]; Week 30, mITT population, listed as insulin glargine): 6.8%
- HbA1c (%) Baseline Mean (SD) ([9]; baseline, mITT population): 8.08 (0.69) %
- HbA1c (%) Baseline Median ([9]; baseline, mITT population): 8.00%
- FPG, LS mean change from baseline to Week 30 ([10]; Example 3): -0.46 mmol/L
- Fasting plasma glucose change from baseline to Week 30, LS Mean ([10]; MMRM, mITT population): -0.46 mmol/L
- Fasting plasma glucose at Week 30, Mean ([10]; mITT population): 6.69 mmol/L
- Fasting plasma glucose at Week 30, Median ([10]; mITT population): 6.30 mmol/L
